Source: US11370846B2, “Compositions and methods to regulate Renalase in the treatment of cancer” (Yale University, priority 2014, dated 2022)
Like-named read-outs stand apart in the source and are kept apart here.

Tests used:
[1] = test system: renalase-1 and renalase-2; test: Renalase isoform specificity of anti-renalase antibodies; type: binding, human; details: renalase-1 vs renalase-2
Method: Peptides were used as immunogens. The peptides generated ranged from 9 to 21 amino acids and corresponded to regions of the renalase-1 and renalase-2 proteins. […] Each peptide was conjugated to the adjuvant KLH via the cysteine and used to immunize 6 rabbits. Antiserum collected from each animal was screened for anti-renalase antibody titer by ELISA assay using both the relevant peptide (BSA-conjugate) or full length renalase-1 or 2. The antisera were also tested for their ability to detect endogenous renalase in tissue lysates by western blot. Using these screening criteria the animals producing antibodies with the preferred characteristics were selected. In some examples and for some peptides, several animals produced antibodies with the required specificity. […] Polyclonal antibodies raised against all of the peptides were generated by purification of total IgG from terminal bleeds by protein G chromatography followed by further purification on peptide affinity chromatography. Further and using standard procedures, lymphocytes from the spleens of selected animals were fused to myeloma cells for hybridoma generation. The hybridoma supernatants were screened for binding to both the peptides against which they were raised and secondarily screened against whole renalase protein. Selected hybridomas were sub-cloned and expanded for antibody purification. The monoclonal antibodies were purified from conditioned hybridoma culture supernatant by protein A affinity chromatography.

melanoma cells = test: Melanoma cell lines in culture, viability/growth; type: cell-based, human
Method: FIG. 19A through FIG. 19D are a series of images and charts showing that inhibition of RNLS signaling is cytotoxic to melanoma cells in vitro. […] FIG. 19B comprises two charts depicting relative cell viability: Left panel: Cells were treated with indicated antibodies for 72 hrs and cell viability was determined using WST-1; m28-RNLS (also known as 1D-28-4), m37-RNLS (also known as 1D-37-10): monoclonal antibodies raised against RNLS peptide RP220; Right panel: A375.S2 cells treated with increasing doses of m28-RNLS for 72 hrs and cell viability determined with a WST-1 assay; n=6, * indicates p<0.05 and ** indicates p<0.005. FIG. 19C comprises representative photos of A375.S2, SkMe128, and SkMe15 after 72 hrs incubation with either control rabbit IgG or m28-RNLS. FIG. 19D is a chart depicting relative cell viability, comprising amino acid (AA) sequence of RNLS peptide antagonist (RP220A).
For additional studies, cell viability was determined using WST-1 reagent (Roche Diagnostics, Indianapolis, Ind., USA) according to the manufacturers' instruction. Absorbances were read using a microplate reader (Power Waves XS, BioTek Instruments, Winooski, Vt., USA).

PDACC = PDACC growth with anti-RNLS antibodies, WST-1; type: cell-based, human; details: 72 hrs
Method: FIG. 25A through FIG. 25E are a series of charts and images showing that inhibition of RNLS signaling is cytotoxic to cancer cells in vitro and in vivo. FIG. 25A is a chart showing relative cell viability following transient transfection of Panc1 cells using a RNLS-specific siRNA, or a non-specific control siRNA, and cell viability assayed 96 h later using the WST-1 reagent; n=6, ** indicates p<0.001. FIG. 25B is a chart showing relative cell viability when cells were treated with indicated antibodies for 72 hrs and cell viability determined using WST-1; m28-RNLS and m37-RNLS: monoclonal antibodies raised against RNLS peptide RP220, ab31291: Abcam polyclonal antibody raised against a partial sequence of RP-220; n=6, * indicates p<0.005. […] FIG. 25D is a chart showing tumor volume increase after athymic nude mice received subcutaneous injection of Panc1 cells transduced with RNLS shRNA (sh-RNLS) or control (sh-Control); tumor volume measured every […] for up to 30 days, n=6 each; * indicates p<0.05. FIG. 25E is chart showing tumor volume increase after nude mice were xenografted with BxPC3; tumor volume measured prior to treatment every 3-4 days with 2 mg/kg of either rabbit IgG as a negative control or with m28-RNLS, n=10, * indicates p<0.05.

renalase isoform specificity [1] | Molecule | melanoma cell growth/viability in culture (melanoma cells) | melanoma cell growth/viability in culture (melanoma cells; listed as D-37-10) | melanoma cell growth/viability in culture (melanoma cells; listed as m37-RNLS) | PDACC growth (PDACC)
specific for renalase-2 | 3A-5-2: anti-renalase monoclonal specific for renalase-2 (antigen 3A); heavy chain SEQ ID NO:41, light chain SEQ ID NO:42 (antibody, oryctolagus cuniculus) heavy: METGLRWLLLVAVLKGVQCQSLEESGGRLVTPGTPLTLTCTVSGFSLNNYHIYWVRQAPGKGLEYIGIIFNGGTYYARWTKGRFTISKTSTTVDLKMTSLTTEDTATYFCARGDGIWGPGTLVTVSLGQPKAPSVFPLAPCCGDTPSSTVTLGCLVKGYLPEPVTVTWNSGTLTNGVRTFPSVRQSSGLYSLSSVVSVTSSSQPVTCNVAHPATNTKVDKTVAPSTCSKPTCPPPELLGGPSVFIFPPKPKDTLMISRTPEVTCVVVDVSQDDPEVQFTWYINNEQVRTARPPLREQQFNSTIRVVSTLPIAHQDWLRGKEFKCKVHNKALPAPIEKTISKARGQPLEPKVYTMGPPREELSSRSVSLTCMINGFYPSDISVEWEKNGKAEDNYKTTPAVLDSDGSYFLYSKLSVPTSEWQRGDVFTCSVMHEALHNHYTQKSISRSPGK light: MDTRAPTQLLGLLLLWLPGATFAQVLTQTPASVSAAVGGTVTINCQASQSVFNNNYLAWYQQKPGQPPKRLIYSASTLASGVSSRFKGSGSGTEFTLTMSGVECDDAATYYCAGSFDCNSGDCVAFGGGTEVVVKGDPVAPTVLIFPPAADQVATGTVTIVCVANKYFPDVTVTWEVDGTTQTTGIENSKTPQNSADCTYNLSSTLTLTSTQYNSHKEYTCKVTQGTTSVVQSFNRGDC | – | – | – | –
specific for renalase-1 | 1F-26-1: anti-renalase monoclonal specific for renalase-1 (antigen 1F); heavy chain SEQ ID NO:25, light chain SEQ ID NO:26 (antibody, oryctolagus cuniculus) heavy: METGLRWLLLVAVLKGVQCQSVKESEGGLFKPTDTLTLTCTVSGFSLSSYGVTWVRQAPGNGLEWIGLIGDRGTTFYASWAKSRSTITRNTNLNTVTLKMTRLTAADTATYFCARGSGYGARIWGPGTLVTVSSWQPKAPSVFPLAPCCGDTPSSTVTLGCLVKGYLPEPVTVTWNSGTLTNGVRTFPSVRQSSGLYSLSSVVSVTSSSQPVTCNVAHPATNTKVDKTVAPSTCSKPTCPPPELLGGPSVFIFPPKPKDTLMISRTPEVTCVVVDVSQDDPEVQFTWYINNEQVRTARPPLREQQFNSTIRVVSTLPIAHQDWLRGKEFKCKVHNKALPAPIEKTISKARGQPLEPKVYTMGPPREELSSRSVSLTCMINGFYPSDISVEWEKNGKAEDNYKTTPAVLDSDGSYFLYSKLSVPTSEWQRGDVFTCSVMHEALHNHYTQKSISRSPGK light: MDTRAPTQLLGLLLLWLPGATFAQVLTQTPSPVSAAVGGTVTINCQSSQSVYKNNYLAWYQQKPGQPPKLLIYETSKLASGVPPRFSGSGSGTQFTLTISSVQCDDAATYYCQGGYSGVDFMAFGGGTEVVVKGDPVAPTVLIFPPSADLVATGTVTIVCVANKYFPDVTVTWEVDGTTQTTGIENSKTPQNSADCTYNLSSTLTLTSTQYNSHKEYTCKVTQGTTSVVQSFNRGDC | – | – | – | –
specific for renalase-1 | 1F-42-7: anti-renalase monoclonal specific for renalase-1 (antigen 1F); heavy chain SEQ ID NO:33, light chain SEQ ID NO:34 (antibody, oryctolagus cuniculus) heavy: METGLRWLLLVAVLKGVQCQSVKESEGGLFKPTDTLTLTCTVSGFSLTTYGVTWVRQAPGNGLEWIGLIGDRGTTYYASWVNGRSTITRNTNLNTVTLKMTRLTAADTATYFCARGSGYGARIWGPGTLVTVASWQPKAPSVFPLAPCCGDTPSSTVTLGCLVKGYLPEPVTVTWNSGTLTNGVRTFPSVRQSSGLYSLSSVVSVTSSSQPVTCNVAHPATNTKVDKTVAPSTCSKPTCPPPELLGGPSVFIFPPKPKDTLMISRTPEVTCVVVDVSQDDPEVQFTWYINNEQVRTARPPLREQQFNSTIRVVSTLPIAHQDWLRGKEFKCKVHNKALPAPIEKTISKARGQPLEPKVYTMGPPREELSSRSVSLTCMINGFYPSDISVEWEKNGKAEDNYKTTPAVLDSDGSYFLYSKLSVPTSEWQRGDVFTCSVMHEALHNHYTQKSISRSPGK light: MDTRAPTQLLGLLLLWLPGATFAQVLTQTPSPMSAALGGTVTINCQSSQTVYNNNYLSWYQQKPGQPPKLLIYETSKLSSGVPPRFSGSGSGTQFTLTISSVQCDDAATYYCQGGYSGVDFMAFGGGTEVVVKGDPVAPTVLIFPPSADLVATGTVTIVCVANKYFPDVTVTWEVDGTTQTTGIENSKTPQNSADCTYNLSSTLTLTSTQYNSHKEYTCKVTQGTTSVVQSFNRGDC | – | – | – | –
recognize renalase-1 and renalase-2 | 1D-37-10: rabbit anti-renalase monoclonal raised against peptide RP-220 (antigen 1D); heavy chain SEQ ID NO:17, light chain SEQ ID NO:18 (antibody, oryctolagus cuniculus) heavy: METGLRWLLLVAVLKGVQCQSVEESGGRLVTPGGSLTLTCTVSGFSLSDYAIIWVRQAPGKGLEYIAIIGSSGDTFYATWAKGRFTISKTSTTVDLKMTSLTAADTATYFCAPRYAGTTDYHDAFDPWGPGTLVTVSSGQPKAPSVFPLAPCCGDTPSSTVTLGCLVKGYLPEPVTVTWNSGTLTNGVRTFPSVRQSSGLYSLSSVVSVTSSSQPVTCNVAHPATNTKVDKTVAPSTCSKPTCPPPELLGGPSVFIFPPKPKDTLMISRTPEVTCVVVDVSQDDPEVQFTWYINNEQVRTARPPLREQQFNSTIRVVSTLPIAHQDWLRGKEFKCKVHNKALPAPIEKTISKARGQPLEPKVYTMGPPREELSSRSVSLTCMINGFYPSDISVEWEKNGKAEDNYKTTPAVLDSDGSYFLYSKLSVPTSEWQRGDVFTCSVMHEALHNHYTQKSISRSPGK light: MDTRAPTQLLGLLLLWLPGARCAEVVMTQTPASMEAPMGGTVTIKCQASQNIYNYLSWYQQKPGQPPKLLVYKASTLTSGVPSRFKGSGSGTQFTLTISDLECADAATYYCQINYSIYNHYNIIFGGGTEVVVKGDPVAPTVLIFPPSADLVATGTVTIVCVANKYFPDVTVTWEVDGTTQTTGIENSKTPQNSADCTYNLSSTLTLTSTQYNSHKEYTCKVTQGTTSVVQSFNRGDC | inhibit melanoma cells in culture | inhibit melanoma cell growth | decreased the viability of all (total of 5) melanoma cell lines tested | inhibitory effects
